# What was measured:
# [1] = molecular target: Concholepas concholepas hemocyanin, native (Concholepas concholepas); assay: negative-stain transmission electron microscopy; hemocyanins 0.6 mg/ml on parlodion-coated copper grids, 1-2% uranyl acetate; didecamers, decamers and dissociated structures counted in about 20 images
# [2] = molecular target: Fissurella latimarginata hemocyanin, native (Fissurella latimarginata); assay: as above
stoichiometry N [1],stoichiometry N [2],Substance
20,–,"Concholepas concholepas hemocyanin, native (complex)"
–,20,"Fissurella latimarginata hemocyanin, native (natural protein)"
